Measured values taken from IntAct's records for PubMed 15949802.

B1: Peroxisomal targeting signal receptor (Saccharomyces cerevisiae), P35056 (parent)
chain: MDVGSCSVGNNPLAQLHKHTQQNKSLQFNQKNNGRLNESPLQGTNKPGISEAFISNVNAISQENMANMQRFINGEPLIDDKRRMEIGPSSGRLPPFSNVHSLQTSANPTQIKGVNDISHWSQEFQGSNSIQNRNADTGNSEKAWQRGSTTASSRFQYPNTMMNNYAYASMNSLSGSRLQSPAFMNQQQSGRSKEGVNEQEQQPWTDQFEKLEKEVSENLDINDEIEKEENVSEVEQNKPETVEKEEGVYGDQYQSDFQEVWDSIHKDAEEVLPSELVNDDLNLGEDYLKYLGGRVNGNIEYAFQSNNEYFNNPNAYKIGCLLMENGAKLSEAALAFEAAVKEKPDHVDAWLRLGLVQTQNEKELNGISALEECLKLDPKNLEAMKTLAISYINEGYDMSAFTMLDKWAETKYPEIWSRIKQQDDKFQKEKGFTHIDMNAHITKQFLQLANNLSTIDPEIQLCLGLLFYTKDDFDKTIDCFESALRVNPNDELMWNRLGASLANSNRSEEAIQAYHRALQLKPSFVRARYNLAVSSMNIGCFKEAAGYLLSVLSMHEVNTNNKKGDVGSLLNTYNDTVIETLKRVFIAMNRDDLLQEVKPGMDLKRFKGEFSF
partner: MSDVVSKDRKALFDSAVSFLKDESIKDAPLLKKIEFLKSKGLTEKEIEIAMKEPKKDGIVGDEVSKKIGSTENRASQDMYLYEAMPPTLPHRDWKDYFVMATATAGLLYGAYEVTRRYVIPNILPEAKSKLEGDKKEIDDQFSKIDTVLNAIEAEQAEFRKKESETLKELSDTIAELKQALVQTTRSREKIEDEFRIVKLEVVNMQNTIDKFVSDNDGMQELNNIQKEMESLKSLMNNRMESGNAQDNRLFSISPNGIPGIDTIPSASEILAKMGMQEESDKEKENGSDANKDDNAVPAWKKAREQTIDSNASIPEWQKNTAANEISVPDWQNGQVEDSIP

Variants of: B1
Conditions: with pex14_yeast PEX14, P53112

effect of a mutation on the interaction	Variant
decreasing interaction	W204A

Variants of: B1
Conditions: with pex14_yeast PEX14, P53112
Remark: another data set of the same source

effect of a mutation on the interaction	Variant
disrupting interaction	W120A;W204A
